Assay [1] addresses T1, neo-glycoprotein NGP5 (LN2-Lac-HSA) (human, UniProt P02768 25-609, LN2-Lac (Galβ4GlcNAcβ3Galβ4Glc) on an ethylthioureidyl linker, coupled through squaric acid to lysine residues; approximately 5 to 9 glycans per HSA molecule (number in Table S7); positions not stated).
T1 construct: human serum albumin (HSA), carrier protein of the neo-glycoprotein; source: washed with water by ultracentrifugation
Description: BLI; biotinylated galectin constructs (2 μg/mL in PBS, 0.05% Tween-20) immobilised on streptavidin biosensors; neo-glycoproteins 1.56-100 nM in solution; 25 °C, 850 rpm; association 450 s, dissociation 600 s; Langmuir 1:1 kinetic model. As to conditions: both partners purified. (In general: BLI is a label-free optical method that tracks binding on a fibre tip over time.)

Another assay deals with T2, Asialofetuin (UniProt P12763 19-359, asialo form (glycans without sialic acid), by its name only).
T2 construct: asialofetuin (desialylated fetuin); neither source nor species is stated; It is coated on the ELISA plate (0.1 µM in PBS); also called ASF
T2 sequence (looked up): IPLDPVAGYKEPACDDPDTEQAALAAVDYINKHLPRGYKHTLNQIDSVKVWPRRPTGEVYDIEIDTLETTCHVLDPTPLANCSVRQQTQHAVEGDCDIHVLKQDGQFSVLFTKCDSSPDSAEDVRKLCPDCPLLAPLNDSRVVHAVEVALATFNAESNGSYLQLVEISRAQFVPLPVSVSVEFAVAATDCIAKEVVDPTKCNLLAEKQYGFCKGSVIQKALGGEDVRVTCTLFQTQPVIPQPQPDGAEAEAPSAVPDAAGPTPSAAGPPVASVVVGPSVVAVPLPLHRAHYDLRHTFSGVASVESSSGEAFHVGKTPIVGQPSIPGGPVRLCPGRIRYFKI
The assay is described as follows: ELISA; direct ELISA: ASF immobilised on microtiter plates, serial dilution of the galectin in EPBS (PBS with 2 mM EDTA, 50 µL/well); otherwise as the competitive ELISA (anti-His-tag-HRP detection). To be noted: both partners purified. On the technique in general: ELISA stands for enzyme-linked immunosorbent assay.

In general, Kd refers to a measure of binding affinity in units of concentration.

B1: Gal-9-AVI-link (monobiotinylated full-length galectin-9) (natural protein, human, UniProt O00182 1-355, looked up)
chain: MAFSGSQAPYLSPAVPFSGTIQGGLQDGLQITVNGTVLSSSGTRFAVNFQTGFSGNDIAFHFNPRFEDGGYVVCNTRQNGSWGPEERKTHMPFQKGMPFDLCFLVQSSDFKVMVNGILFVQYFHRVPFHRVDTISVNGSVQLSYISFQNPRTVPVQPAFSTVPFSQPVCFPPRPRGRRQKPPGVWPANPAPITQTVIHTVQSAPGQMFSTPAIPPMMYPHPAYPMPFITTILGGLYPSKSILLSGTVLPSAQRFHINLCSGNHIAFHLNPRFDENAVVRNTQIDNSWGSEERSLPRKMPFVRGQSFSVWILCEAHCLKVAVDGQHLFEYYHRLRNLPTINRLEVGGDIQLTHVQT
modifications: biotin on the single lysine of the AVI-tag (…)
notes: human galectin-9 (Gal-9), both CRDs with the linker peptide; prepared as described previously; source: E. coli BL21(λDE3) cotransformed with the birA gene (biotin ligase), biotinylated in vivo; see Supporting Information, Section 6; not shown: (GGS)5 linker between AVI-tag and galectin, N-terminal, kept
In assay [1], B1 displayed a Kd of 0.05 ± 0.01 nM.

B2: Gal-4-AVI-link (natural protein, human, UniProt P56470 1-323, looked up)
chain: MAYVPAPGYQPTYNPTLPYYQPIPGGLNVGMSVYIQGVASEHMKRFFVNFVVGQDPGSDVAFHFNPRFDGWDKVVFNTLQGGKWGSEERKRSMPFKKGAAFELVFIVLAEHYKVVVNGNPFYEYGHRLPLQMVTHLQVDGDLQLQSINFIGGQPLRPQGPPMMPPYPGPGHCHQQLNSLPTMEGPPTFNPPVPYFGRLQGGLTARRTIIIKGYVPPTGKSFAINFKVGSSGDIALHINPRMGNGTVVRNSLLNGSWGSEEKKITHNPFGPGQFFDLSIRCGLDRFKVYANGQHLFDFAHRLSAFQRVDTLEIQGDVTLSYVQI
modifications: biotin on the single lysine of the AVI-tag
notes: human galectin-4, full-length tandem-repeat galectin with the native full-length peptide linker of 28 aa (2979 Da); synthetic gene (Biocat) in pET-Duet1; also called Gal-4 (AVI-tag); source: E. coli BL21(λDE3) co-expressing biotin ligase BirA, purified (Ni-NTA); not shown: His6, N-terminal, kept
As for B2, the affinity with Asialofetuin, expressed as Kd, was 2300 ± 800 nM.

Source of the values: article PMC12344693, “Human Milk Oligosaccharides Multivalently Presented on Defined Synthetic Neo-Glycoproteins Are Nanomolar Ligands of Tandem-Repeat Galectins” (Biomacromolecules, 2025).
